Results reported in article PMC6310132 (The Biochemical journal, 2016).

Target: N-ethylmaleimide-sensitive factor (NSF), pRSET-A fusion protein (mouse, UniProt P46460 1-744)
Test: SPR

Sequence of N-ethylmaleimide-sensitive factor (NSF), pRSET-A fusion protein (P46460 whole entry, the tested form may be a part): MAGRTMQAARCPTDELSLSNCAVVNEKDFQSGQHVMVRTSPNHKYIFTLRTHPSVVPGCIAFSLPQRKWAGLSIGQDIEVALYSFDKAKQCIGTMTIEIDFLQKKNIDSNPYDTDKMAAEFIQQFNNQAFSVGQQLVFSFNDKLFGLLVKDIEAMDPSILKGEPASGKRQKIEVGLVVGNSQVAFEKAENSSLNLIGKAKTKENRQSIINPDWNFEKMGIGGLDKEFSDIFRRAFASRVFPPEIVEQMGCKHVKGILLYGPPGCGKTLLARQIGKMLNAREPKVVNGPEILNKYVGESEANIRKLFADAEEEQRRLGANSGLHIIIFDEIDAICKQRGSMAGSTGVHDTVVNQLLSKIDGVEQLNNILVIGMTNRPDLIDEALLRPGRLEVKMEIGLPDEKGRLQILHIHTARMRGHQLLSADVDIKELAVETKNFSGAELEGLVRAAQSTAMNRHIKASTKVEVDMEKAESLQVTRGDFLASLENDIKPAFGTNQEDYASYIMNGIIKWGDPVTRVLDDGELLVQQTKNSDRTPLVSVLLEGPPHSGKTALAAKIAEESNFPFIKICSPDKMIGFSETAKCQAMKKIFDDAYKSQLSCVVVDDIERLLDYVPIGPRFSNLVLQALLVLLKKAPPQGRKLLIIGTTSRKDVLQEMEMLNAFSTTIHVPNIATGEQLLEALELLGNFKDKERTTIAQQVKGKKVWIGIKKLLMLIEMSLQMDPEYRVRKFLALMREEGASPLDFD

Kd: 12.1 nM
koff: 0.00274 s⁻¹
kon: 227000 M⁻¹ s⁻¹
B1: rat organ of Corti dopamine D1A carboxy terminus, pRSET-A fusion protein (domain or fragment, UniProt P18901 338-425, looked up)
chain: QKAFSTLLGCYRLCPTTNNAIETVSINNNGAVVFSSHHEPRGSISKDCNLVYLIPHAVGSSEDLKKEEAGGIAKPLEKLSPALSVILD
